Measurements published in the supplement of paper PMC7877785.
± gives the uncertainty stated by the source.

Experiment: self-splicing fitness, log relative to wild type (ln ratio); higher = more splicing; Tetrahymena group I intron in knt gene, E. coli kanamycin selection, DiMSum; sequences stand for … in CUCUCU…GGAGGGAAAAGUUAUCAGGCAUGCACCUGGUAGCUAGUCUUUAAACCAAUAGAUUGCAUCGGUUUAAAAGGCAAGACCGUCAAAUUGCGGGAAAGGGGUCAACAGCCGUUCAGUACCAAGUCUCAGGGGAAACUUUGAGAUGGCCUUGCAAAGGGUAUGGUAAUAAGCUGACGGACAUGGUCCUAACCACGCAGCCAAGUCCUAAGUCAACAGAUCUUCUGUUGAUAUGGAUGCAGUUCACAGACUAAAUGUCGGUCGGGGAAGAUGUAUUCUUCUCAUAAGAUAUAGUCGGACCUCUCCUUAAUGGGAGCUAGCGGAUGAAGUGAUGCAACACUGGAGCCGCUGGGAACUAAUUUGUAUGCGAAAGUAUAUUGAUUAGUUUUGGAGUACUCGUGGUCG
Summary of the method: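 The eight P1ex-region nucleotides of an intron in the knt kanamycin-resistance gene on pET-22b(+) were all randomised and the library put into E. coli BL21(DE3). Six replicate transformations were grown overnight at 37°C or 30°C on LB agar with or without 25 μg/mL kanamycin, together with 100 μg/mL carbenicillin, 50 μM IPTG and 0.2% rhamnose. Colonies were pooled and amplicon-sequenced on an Illumina HiSeq 2500. Fitness from DiMSum is the error-weighted combination of wild-type-normalised replicate fold changes, kanamycin over none.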

| Sequence | self-splicing fitness (ln) (30 °C) | self-splicing fitness (ln) (37 °C) |
| --- | --- | --- |
| ACUUAGCAAUAUUACGUGUA | -2.37 ± 0.11 | -1.43 ± 0.095 |
| CUAUAGCAAUAUUACGCACG | -0.606 ± 0.14 | -0.255 ± 0.23 |
| ACACAGCAAUAUUACGAAAA | -3.2 ± 0.19 | -3 ± 0.19 |
| CAAAAGCAAUAUUACGUUCU | -1.3 ± 0.14 | -0.926 ± 0.14 |
| CGAAAGCAAUAUUACGCCUG | -0.16 ± 0.095 | 0.392 ± 0.11 |
| CACUAGCAAUAUUACGCUGA | -2.58 ± 0.23 | -1.51 ± 0.19 |
| UUCGAGCAAUAUUACGAUAU | -3.85 ± 0.33 | -2.51 ± 0.49 |
| GCAGAGCAAUAUUACGGCCA | – | -2.11 ± 0.29 |
| CAUUAGCAAUAUUACGCUCC | – | -1.18 ± 0.38 |
| UGUAAGCAAUAUUACGUCAU | -2.39 ± 0.16 | -1.28 ± 0.19 |
| AUUCAGCAAUAUUACGGUGG | -3.09 ± 0.15 | -1.58 ± 0.14 |
| ACGGAGCAAUAUUACGCAUU | -3.43 ± 0.43 | -2.85 ± 0.34 |
| UACAAGCAAUAUUACGUGCC | -2.49 ± 0.15 | -1.53 ± 0.14 |
| GAGGAGCAAUAUUACGUGCA | -3.41 ± 0.34 | -1.31 ± 0.17 |
| GACUAGCAAUAUUACGGUGG | -1.91 ± 0.072 | -1.27 ± 0.082 |
| CUAUAGCAAUAUUACGCCGU | -3.51 ± 0.29 | -2.6 ± 0.44 |
| UUCAAGCAAUAUUACGCGCU | -1.69 ± 0.12 | -1.44 ± 0.13 |
| UAAUAGCAAUAUUACGUAAU | -3.25 ± 0.29 | -2.52 ± 0.34 |
| ACAAAGCAAUAUUACGACGA | -0.436 ± 0.063 | -0.207 ± 0.062 |
| CUGUAGCAAUAUUACGGCUG | -0.442 ± 0.099 | -0.0988 ± 0.13 |
| ACUUAGCAAUAUUACGCGAU | -3.66 ± 0.36 | -1.13 ± 0.17 |
| GUCUAGCAAUAUUACGAUGA | -1.21 ± 0.28 | -0.329 ± 0.13 |
| ACUAAGCAAUAUUACGGGAU | -2.17 ± 0.073 | -1.3 ± 0.097 |
| UACAAGCAAUAUUACGUAGU | -3.88 ± 0.17 | -2.18 ± 0.15 |
| UGUUAGCAAUAUUACGGACG | -0.811 ± 0.15 | -0.257 ± 0.17 |

| Sequence | self-splicing fitness (ln) (30 °C) | self-splicing fitness (ln) (37 °C) |
| --- | --- | --- |
| UUACAGCAAUAUUACGCCAA | -1.35 ± 0.17 | -1.01 ± 0.17 |
| CCGUAGCAAUAUUACGGCCU | -1.36 ± 0.14 | -2.7 ± 0.41 |
| CCCGAGCAAUAUUACGAGAU | -3.49 ± 0.21 | -2.59 ± 0.3 |
| UCUGAGCAAUAUUACGGCUA | -3.33 ± 0.42 | -2.58 ± 0.29 |
| UAUGAGCAAUAUUACGUCCU | -2.35 ± 0.23 | -2.19 ± 0.49 |
| CCUUAGCAAUAUUACGCCUG | – | -2.89 ± 0.34 |
| UAGUAGCAAUAUUACGACGU | -1.23 ± 0.11 | -0.175 ± 0.095 |
| GUGAAGCAAUAUUACGAAGC | -2.06 ± 0.08 | -1.06 ± 0.11 |
| AACAAGCAAUAUUACGGUGG | -1.84 ± 0.06 | -0.813 ± 0.073 |
| CGUCAGCAAUAUUACGUUAU | -2.95 ± 0.14 | -2.83 ± 0.17 |
| UUGCAGCAAUAUUACGUUGU | -3.23 ± 0.2 | -2.81 ± 0.2 |
| CCGAAGCAAUAUUACGAGGA | -4.32 ± 0.39 | -2.54 ± 0.21 |
| CUGAAGCAAUAUUACGUUCC | – | -2.57 ± 0.3 |
| GGUUAGCAAUAUUACGACAU | 0.0748 ± 0.014 | 0.332 ± 0.034 |
| AGAAAGCAAUAUUACGGCGC | -0.688 ± 0.12 | -1.01 ± 0.15 |
| CUCGAGCAAUAUUACGGAAU | -3.24 ± 0.2 | -3.23 ± 0.38 |
| CGCUAGCAAUAUUACGAACG | -2.16 ± 0.099 | -1.1 ± 0.11 |
| AUAAAGCAAUAUUACGAGUG | -2.03 ± 0.1 | -1.16 ± 0.12 |
| UGCCAGCAAUAUUACGGAGA | -1.47 ± 0.096 | -0.852 ± 0.098 |
| CCCGAGCAAUAUUACGCACC | -3.46 ± 0.28 | -2.35 ± 0.4 |
| GUCUAGCAAUAUUACGCUGA | -1.21 ± 0.16 | -0.707 ± 0.13 |
| AUGGAGCAAUAUUACGGAGA | -2.93 ± 0.44 | -1.21 ± 0.32 |
| ACAUAGCAAUAUUACGCAAG | -1.9 ± 0.12 | -1.25 ± 0.2 |
| AGAAAGCAAUAUUACGUUGG | -3.2 ± 0.2 | -0.323 ± 0.12 |
| UAAUAGCAAUAUUACGCACU | -1.16 ± 0.11 | -1.02 ± 0.12 |

| Sequence | self-splicing fitness (ln) (30 °C) | self-splicing fitness (ln) (37 °C) |
| --- | --- | --- |
| GAUAAGCAAUAUUACGUUUU | -2.39 ± 0.098 | -1.48 ± 0.1 |
| CCACAGCAAUAUUACGGCGG | -3.15 ± 0.14 | -1.08 ± 0.12 |
| GUCUAGCAAUAUUACGAAGG | -2.34 ± 0.18 | -1.43 ± 0.16 |
| GGGAAGCAAUAUUACGGUCU | -1.58 ± 0.086 | 0.382 ± 0.11 |
| CCAGAGCAAUAUUACGACAU | -3.776 ± 0.029 | -3.03 ± 0.043 |
| UGAAAGCAAUAUUACGUGGG | -3.67 ± 0.2 | -2.4 ± 0.17 |
| CGAGAGCAAUAUUACGCCAG | – | -1.51 ± 0.4 |
| CCAUAGCAAUAUUACGAGAA | -0.566 ± 0.36 | – |
| GAUUAGCAAUAUUACGUGAA | -3.07 ± 0.17 | -1.48 ± 0.14 |
| ACUGAGCAAUAUUACGACUG | -3.2 ± 0.34 | -1.68 ± 0.23 |
| AGCCAGCAAUAUUACGGGAA | -2.59 ± 0.19 | -0.667 ± 0.12 |
| GAGCAGCAAUAUUACGACCC | 0.0587 ± 0.081 | -0.0685 ± 0.098 |
| GCUUAGCAAUAUUACGCCCU | -1.54 ± 0.11 | -0.719 ± 0.13 |
| CUCAAGCAAUAUUACGGCGG | -2.38 ± 0.092 | -1.65 ± 0.11 |
| CCUGAGCAAUAUUACGCGUU | -3.53 ± 0.29 | -3.12 ± 0.35 |
| CGUGAGCAAUAUUACGAUUC | -3.25 ± 0.23 | -2.58 ± 0.44 |
| AGUUAGCAAUAUUACGCGCA | -0.182 ± 0.14 | 0.341 ± 0.21 |
| UGUAAGCAAUAUUACGACAC | -2.51 ± 0.41 | – |
| UAGUAGCAAUAUUACGAAUU | -4.36 ± 0.36 | -2.27 ± 0.27 |
| UUGGAGCAAUAUUACGAUGA | -0.635 ± 0.11 | -0.543 ± 0.11 |
| GCGGAGCAAUAUUACGGGCA | – | -1.1 ± 0.47 |
| CACGAGCAAUAUUACGCGAA | -2.93 ± 0.28 | -2.1 ± 0.26 |
| AUAUAGCAAUAUUACGGUAG | -3.13 ± 0.18 | -1.74 ± 0.21 |
| UGGCAGCAAUAUUACGUGAG | -0.544 ± 0.047 | 0.438 ± 0.077 |
| CUUAAGCAAUAUUACGAAUA | -2.42 ± 0.27 | -3.17 ± 0.43 |

| Sequence | self-splicing fitness (ln) (30 °C) | self-splicing fitness (ln) (37 °C) |
| --- | --- | --- |
| CUAAAGCAAUAUUACGGCUG | 0.0357 ± 0.069 | -0.0492 ± 0.089 |
| UUCCAGCAAUAUUACGUACG | -0.796 ± 0.1 | -0.902 ± 0.16 |
| CGGUAGCAAUAUUACGACCU | 0.308 ± 0.21 | -0.233 ± 0.19 |
| GAAUAGCAAUAUUACGUACU | -0.732 ± 0.11 | -0.151 ± 0.12 |
| CUACAGCAAUAUUACGAUGC | -3.88 ± 0.39 | -2.81 ± 0.2 |
| ACCAAGCAAUAUUACGUUAA | -3.17 ± 0.18 | -2.46 ± 0.17 |
| AUUGAGCAAUAUUACGUCAA | -3.05 ± 0.26 | -2.6 ± 0.28 |
| CUGUAGCAAUAUUACGCCAC | -2.54 ± 0.25 | -2.09 ± 0.47 |
| UGGCAGCAAUAUUACGCUUU | -1.24 ± 0.076 | -0.763 ± 0.1 |
| ACGAAGCAAUAUUACGUCCA | -0.408 ± 0.12 | -0.457 ± 0.13 |
| CAGGAGCAAUAUUACGCCAG | -2.75 ± 0.32 | – |
| GGUGAGCAAUAUUACGACAU | -1.27 ± 0.016 | -0.567 ± 0.035 |
| UGGCAGCAAUAUUACGUAAG | -0.674 ± 0.049 | 0.00441 ± 0.073 |
| GCCGAGCAAUAUUACGUUUG | -3.75 ± 0.2 | -1.54 ± 0.19 |
| CAAAAGCAAUAUUACGAGAA | -1.51 ± 0.24 | -2.47 ± 0.25 |
| CAUGAGCAAUAUUACGUCAG | -1.35 ± 0.095 | -1.13 ± 0.12 |
| CGAGAGCAAUAUUACGCACU | -2.06 ± 0.2 | -1.89 ± 0.23 |
| CCUGAGCAAUAUUACGUAAG | -3.03 ± 0.19 | -1.6 ± 0.12 |
| CCAGAGCAAUAUUACGCGGU | -3.94 ± 0.23 | -3.14 ± 0.33 |
| GCUCAGCAAUAUUACGAUAA | -0.805 ± 0.092 | -0.579 ± 0.11 |
| GACCAGCAAUAUUACGCAUA | -0.474 ± 0.058 | -0.452 ± 0.074 |
| GCUCAGCAAUAUUACGUUCC | -0.532 ± 0.062 | -0.507 ± 0.088 |
| AUCUAGCAAUAUUACGCUCA | -0.577 ± 0.17 | -0.0187 ± 0.2 |
